The results in this text go back to PMC11870197.

Common to all, as to assay: EMSA
The target in one series is T1, 6xHis-PhoP (Lacticaseibacillus paracasei BL23, UniProt Q03AN9 1-235).
T1 sequence: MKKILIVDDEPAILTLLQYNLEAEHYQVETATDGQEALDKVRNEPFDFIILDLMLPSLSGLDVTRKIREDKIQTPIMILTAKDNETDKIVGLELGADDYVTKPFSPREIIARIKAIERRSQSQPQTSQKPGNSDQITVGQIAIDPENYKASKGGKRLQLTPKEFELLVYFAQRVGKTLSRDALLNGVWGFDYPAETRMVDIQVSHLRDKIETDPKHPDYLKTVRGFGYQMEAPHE

Series [1] deals with T2, 6xHis-PhoP~P (Lacticaseibacillus paracasei BL23, UniProt Q03AN9 1-235).
T2 sequence: T1 sequence

The target of series [2] is T2, 6xHis-PhoP~P. This is another data set of the same source.

B1: ackA promoter fragment (dsDNA)
DNA 1: GATTCGCCGAAAACCAAGAAAAAGTCATGATGCTGTGCGATTACGTGTGCGGCAATCCGACTACCCGTTTAGAGGAGGAAAAAAACAATGGCAAAAATTCTCGCAGTCAACGCAGGCAGTTC
DNA 2: GAACTGCCTGCGTTGACTGCGAGAATTTTTGCCATTGTTTTTTTCCTCCTCTAAACGGGTAGTCGGATTGCCGCACACGTAATCGCACAGCATCATGACTTTTTCTTGGTTTTCGGCGAATC
With B1, the binding result in the series with 6xHis-PhoP and in the series with 6xHis-PhoP~P [1] was “no binding” each time.

B2: glnA promoter fragment (dsDNA)
DNA 1: TGCCAAATTAGTGACGCTATTTGCAAATTCCCCCGCGACAATTTTTAGACAATCTTTCCTTTTATTTAAAATCATGTAACATTAGGGCCGAACGATACATATGTAACGGTGTTTTTTAACC
DNA 2: GGTTAAAAAACACCGTTACATATGTATCGTTCGGCCCTAATGTTACATGATTTTAAATAAAAGGAAAGATTGTCTAAAAATTGTCGCGGGGGAATTTGCAAATAGCGTCACTAATTTGGCA
For B2, in the series with 6xHis-PhoP~P [2], the binding signal is ~10 fold more PhoP required than for pstS or phnD.

B3: poxL promoter fragment (dsDNA)
DNA 1: TTGATCCATGATCCTGATCATCATTAAGTTAATTTGTGAAAAAGGTTTACCAAGCATGTTATGGCGTGGTGATGCTGTATTAGTTCACTTGTTTGACTGTTATGGTGTCGTCG
DNA 2: CGACGACACCATAACAGTCAAACAAGTGAACTAATACAGCATCACCACGCCATAACATGCTTGGTAAACCTTTTTCACAAATTAACTTAATGATGATCAGGATCATGGATCAA
In the case of B3, the binding result with 6xHis-PhoP and in the series with 6xHis-PhoP~P [1] was “no binding” each time.
